Laboratory results published in article PMC5718613.

Target: S. aureus flotillin (FloA), fused to T25 or T18 fragments of an adenylate cyclase (S. aureus)
Test: two-hybrid; bacterial two-hybrid in E. coli BTH101; FloA and T7SS membrane proteins fused C- and N-terminally with T18 and T25 fragments of adenylate cyclase; X-Gal plates (48 h, 30°C) and β-galactosidase activity in Miller Units; a 700 Miller Unit threshold defines positive and negative signals

S. aureus flotillin (FloA), fused to T25 or T18 fragments of an adenylate cyclase (S. aureus), sequence (A6QHB6 whole entry, the tested form may be a part): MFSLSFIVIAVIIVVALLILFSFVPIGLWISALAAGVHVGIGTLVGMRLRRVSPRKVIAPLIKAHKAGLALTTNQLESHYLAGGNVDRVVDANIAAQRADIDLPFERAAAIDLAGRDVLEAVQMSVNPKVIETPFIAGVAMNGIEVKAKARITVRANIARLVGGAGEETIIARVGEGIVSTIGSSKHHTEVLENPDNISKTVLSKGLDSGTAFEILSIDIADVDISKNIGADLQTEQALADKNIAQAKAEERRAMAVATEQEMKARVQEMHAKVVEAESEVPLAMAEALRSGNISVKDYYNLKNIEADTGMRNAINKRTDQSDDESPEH

Q: With “EssB, fused to T25 or T18 fragments of an adenylate cyclase (from UniProt Q2G185 1-444) (natural protein)” as the substance, how does the β-galactosidase activity (two-hybrid signal) read?
A: > 2000 Miller Units
